Source: US20240325557A1, “TREATMENT OF CANCER” (INNATE PHARMA, priority 2020, published 2024)

T1: Nectin-4 Mutant 1 (S58P/G59D/Q61A/N106D/P107A) (Homo sapiens, UniProt Q96NY8, G59D/N106D/P107A/Q61A/S58P)
T1 construct: expressed in transfected cells; host or cells: HEK293T
T1 sequence (Q96NY8 32-510 S58P/G59D/Q61A/N106D/P107A): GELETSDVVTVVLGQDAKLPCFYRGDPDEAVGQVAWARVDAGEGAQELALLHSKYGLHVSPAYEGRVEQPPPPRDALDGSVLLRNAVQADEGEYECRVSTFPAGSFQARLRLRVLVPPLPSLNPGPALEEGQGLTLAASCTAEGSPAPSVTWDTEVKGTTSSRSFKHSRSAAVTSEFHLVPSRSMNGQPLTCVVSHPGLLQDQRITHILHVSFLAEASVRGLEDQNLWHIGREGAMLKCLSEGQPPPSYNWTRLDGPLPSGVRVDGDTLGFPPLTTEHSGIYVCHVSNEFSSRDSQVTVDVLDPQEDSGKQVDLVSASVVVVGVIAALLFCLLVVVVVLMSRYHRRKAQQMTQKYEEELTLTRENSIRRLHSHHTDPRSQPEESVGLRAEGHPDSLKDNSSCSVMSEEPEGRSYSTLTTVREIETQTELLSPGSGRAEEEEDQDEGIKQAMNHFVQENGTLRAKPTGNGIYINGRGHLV

T2: Nectin-4 Mutant 7bis (A72P/G73N/K197T/S199A) (Homo sapiens, UniProt Q96NY8, A72P/G73N/K197T/S199A)
T2 construct: expressed in transfected cells; host or cells: HEK293T
T2 sequence (Q96NY8 32-510 A72P/G73N/K197T/S199A): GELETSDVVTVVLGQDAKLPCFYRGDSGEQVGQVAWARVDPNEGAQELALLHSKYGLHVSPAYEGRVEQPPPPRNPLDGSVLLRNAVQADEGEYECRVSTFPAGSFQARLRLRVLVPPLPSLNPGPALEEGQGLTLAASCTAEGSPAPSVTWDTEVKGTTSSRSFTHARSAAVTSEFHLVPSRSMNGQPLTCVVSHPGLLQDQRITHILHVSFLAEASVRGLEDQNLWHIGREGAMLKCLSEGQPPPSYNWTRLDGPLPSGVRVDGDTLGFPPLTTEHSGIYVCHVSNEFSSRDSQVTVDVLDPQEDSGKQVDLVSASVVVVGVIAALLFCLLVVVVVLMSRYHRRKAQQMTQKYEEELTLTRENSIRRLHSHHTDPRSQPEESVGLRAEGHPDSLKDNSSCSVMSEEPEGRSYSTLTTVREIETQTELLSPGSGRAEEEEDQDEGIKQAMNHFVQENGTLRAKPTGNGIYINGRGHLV

T3: Nectin-4 Mutant 3 (A76S/Q77R/E78A/S91N) (Homo sapiens, UniProt Q96NY8, A76S/E78A/Q77R/S91N)
T3 construct: expressed in transfected cells; host or cells: HEK293T
T3 sequence (Q96NY8 32-510 A76S/Q77R/E78A/S91N): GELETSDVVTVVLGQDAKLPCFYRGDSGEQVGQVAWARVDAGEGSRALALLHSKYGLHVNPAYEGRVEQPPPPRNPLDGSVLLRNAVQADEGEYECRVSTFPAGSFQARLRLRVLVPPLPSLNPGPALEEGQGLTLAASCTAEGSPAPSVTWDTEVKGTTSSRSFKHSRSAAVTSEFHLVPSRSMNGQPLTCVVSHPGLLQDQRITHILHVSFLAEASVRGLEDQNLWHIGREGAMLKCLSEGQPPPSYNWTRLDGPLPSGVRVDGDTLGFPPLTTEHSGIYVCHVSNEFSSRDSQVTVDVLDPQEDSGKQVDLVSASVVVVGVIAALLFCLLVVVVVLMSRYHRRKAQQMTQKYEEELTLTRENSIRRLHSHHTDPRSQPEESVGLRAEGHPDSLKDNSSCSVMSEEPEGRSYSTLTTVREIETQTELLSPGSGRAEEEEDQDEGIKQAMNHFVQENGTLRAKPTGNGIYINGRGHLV

T4: Nectin-4 Mutant 9 (L150S/S152A/Q234R/I236S) (Homo sapiens, UniProt Q96NY8, I236S/L150S/Q234R/S152A)
T4 construct: expressed in transfected cells; host or cells: HEK293T
T4 sequence (Q96NY8 32-510 L150S/S152A/Q234R/I236S): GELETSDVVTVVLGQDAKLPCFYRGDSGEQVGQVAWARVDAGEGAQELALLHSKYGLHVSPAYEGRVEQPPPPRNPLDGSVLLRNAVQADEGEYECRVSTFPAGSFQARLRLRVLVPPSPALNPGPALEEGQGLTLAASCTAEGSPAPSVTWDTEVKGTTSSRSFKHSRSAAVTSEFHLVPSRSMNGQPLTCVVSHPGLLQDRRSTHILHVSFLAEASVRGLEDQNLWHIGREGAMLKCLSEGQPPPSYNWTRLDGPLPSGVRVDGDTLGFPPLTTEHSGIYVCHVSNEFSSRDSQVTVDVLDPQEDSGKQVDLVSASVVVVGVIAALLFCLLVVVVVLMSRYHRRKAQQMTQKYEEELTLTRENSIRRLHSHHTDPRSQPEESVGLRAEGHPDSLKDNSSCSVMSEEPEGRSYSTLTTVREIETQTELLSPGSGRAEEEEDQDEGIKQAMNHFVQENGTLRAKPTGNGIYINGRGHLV


Tests used:
Assay in all cases: Binding to cell surface expressed Nectin-4 point mutant
Conditions in all cases: HEK-293T
[1] = biological target: T1, Nectin-4 Mutant 1 (S58P/G59D/Q61A/N106D/P107A)
Text: (§1) Combined with the published structures of the Nectin-4 domains, Nectin-4 mutations at surface exposed amino acids residues were designed. Nectin-4 domain structure was modelled based on Protein Data Bank reference: 4FRW (domains V et C1). Human Nectin-4 used was NCBI Reference Sequence: NP_112178.2, mouse Nectin-4 used was NCBI Reference Sequence: AAL79833.1, cynomolgus Nectin-4 used was NCBI Reference Sequence: XP_005541277.1, rat Nectin-4 used was NCBI Reference Sequence: NP_001102546.1. The cells expressing the Nectin-4 mutants are then be used for testing anti-Nectin-4 antibodies for loss of binding to different Nectin-4 mutants to identify antibodies that bind to the same site on Nectin-4. […] FIGS. 12A and 12B show a molecular model of the human Nectin-4 protein, indicating the position of substituted residues in mutants 7 (12A) and in mutants 7bis (12B); these mutants are in the C1 domain identify two sites at the junction of domain C1 and V domain that are on opposing faces of the Nectin-4 protein.
(§2) Nectin-4 mutants were generated by PCR. The sequences amplified were run on agarose gel and purified using the Macherey Nagel PCR Clean-Up Gel Extraction kit. The purified PCR products generated for each mutant were then ligated into an expression vector, with the ClonTech InFusion system. The vectors containing the mutated sequences were prepared as Miniprep and sequenced. After sequencing, the vectors containing the mutated sequences were prepared as Midiprep using the Promega PureYield™ Plasmid Midiprep System. HEK293T cells were grown in DMEM medium (Invitrogen), transfected with vectors using Invitrogen's Lipofectamine 2000 and incubated at 37° C. in a CO2 incubator for 48 hours prior to testing for transgene expression. The targeted amino acid mutations are shown in Table 2 below, listing the residue present in wild-type Nectin-4/position of residue/residue present in mutant Nectin-4, with position reference being to the Nectin-4 protein with leader peptide shown in SEQ ID NO: 1.

[2] = biological target: T2, Nectin-4 Mutant 7bis (A72P/G73N/K197T/S199A)
Text: as §1, §2

[3] = biological target: T3, Nectin-4 Mutant 3 (A76S/Q77R/E78A/S91N)
Text: as §1, §2

[4] = biological target: T4, Nectin-4 Mutant 9 (L150S/S152A/Q234R/I236S)
Text: as §1, §2

Molecule	association with Nectin-4 Mutant 1 [1]	association with Nectin-4 Mutant 7bis [2]	association with Nectin-4 Mutant 3 [3]	association with Nectin-4 Mutant 9 [4]
N41 (antibody, V domains shown) VH: QVQLKQSGPGLVQPSQSLSITCTVSGFSLTNYGVHWVRQSPGKGLEWLGVIWSGGSTDYNAAFISRLSISKDTSKSQVFFKMNSLQADDTAIYYCARELIHAMDNWGQGTSVTVSS VL: DIQMTQSPASLSVSVGETVTITCRASENIYSNLAWYQQKQGNSPQLLVFAATNLADGVPSRFSGSGSGTQYSLKINSLQSEDFGTYYCQHFWGTPTFGGGTKLEIK	−	+	+	+
5E7 (antibody, V domains shown) VH: QVQLQQPGAELVKPGASVKLSCKASGYIFTSYWMHWVKQRPGQGLEWIGEIDPSDSYTNYNQKFKGKATLTLDKSSSTTYMQLSSLTSEDSAVYYCVRGYGNYGDYWGQGTTLTVSS VL: DVVMTQAAFSNPVTLGTSASISCRSSKSLLHSNGITYLYWYLQKPGQSPQLLIYQMSNLASGVPDRFSSSGSGTDFTLRISRVEAEDVGVYYCAQNLELPWTFGGGTKLEIK	+	−	+	+
10B12: anti-Nectin-4 antibody, VH SEQ ID NO: 24, VL SEQ ID NO: 25, binds junction of domain C1 and V (antibody, listed as Mus musculus, V domains shown) VH: QVQLQQPGAELVKPGASVKLSCKASGYTFTSYWMHWVKQRPGQGLEWIGEIDPSDSYTNYNQKFKGKATLTVDKSSSTAYMQLSSLTSEDSAVYYCVRGYGNYGDYWGQGTTLTVSS VL: DIVMTQAAFSNPVTLGTSASISCRSSKSLLHSNGITYLYWYLQKPGQSPQLLIYQMSNLASGVPDRFSSSGSGTDFTLRISRVEAEDVGVYYCAQNLELPWTFGGGTKLEIK	+	−	+	+
